Where a chain is given by its changes, count along the chain named.
Key:
[1] = target: T1, recombinant human CD25 his tagged (human, UniProt P01589 22-240); test: SPR, Biacore 2000: IgG1 captured on the chip, rhCD25-his tag as analyte
T1 construct: also called rhCD25; rhCD25-his tag; not shown: His tag
T1 sequence: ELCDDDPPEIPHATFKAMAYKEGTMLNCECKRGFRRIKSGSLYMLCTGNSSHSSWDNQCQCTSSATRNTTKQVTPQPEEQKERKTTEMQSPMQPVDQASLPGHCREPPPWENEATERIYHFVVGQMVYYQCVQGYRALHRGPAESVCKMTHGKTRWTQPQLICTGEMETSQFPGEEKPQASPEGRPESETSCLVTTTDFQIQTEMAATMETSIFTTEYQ

[2] = target: T1, recombinant human CD25 his tagged; test: as above; remark: listed apart in the source
[3] = target: T1, recombinant human CD25 his tagged; test: as above; remark: listed apart in the source
[4] = target: T1, recombinant human CD25 his tagged; test: as above; remark: listed apart in the source
[5] = target: T1, recombinant human CD25 his tagged; test: BLI, ForteBio Octet Red96, IgG on AHC sensors, rhCD25-His in solution, global 1:1 fit
Description: Sensors were equilibrated off-line in assay buffer for 10 min and then monitored on-line for 60 seconds for baseline establishment. […] Then, 1:3 serial dilutions (from 1 uM to 4 nM) of recombinant human CD25 HIS tagged was associated to the loaded IgG for 10 min. Afterwards they were transferred to assay buffer for 6.6 min for off-rate measurement. Kinetics data were fit using a global 1:1 binding model in the ForteBio Data Analysis Software 9.0 with reference subtraction.

[6] = target: T2, human CD25 expressed on cells (human, UniProt P01589 22-272); test: flow cytometry on CD3/CD28 bead activated human Pan T cells, gated on CD4+ T cells
T2 construct: Endogenous CD25 on human cell lines and primary cells
T2 sequence: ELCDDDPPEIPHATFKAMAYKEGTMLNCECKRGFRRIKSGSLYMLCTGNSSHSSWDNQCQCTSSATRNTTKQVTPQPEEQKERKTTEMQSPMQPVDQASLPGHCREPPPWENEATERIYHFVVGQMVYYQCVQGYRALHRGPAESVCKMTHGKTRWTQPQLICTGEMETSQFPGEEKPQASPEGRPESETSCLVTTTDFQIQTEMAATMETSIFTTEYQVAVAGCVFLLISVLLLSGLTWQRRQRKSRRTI
Description: (§1) Binding to CD25 expressing activated human and Cynomolgus monkey PMBC was examined by staining test articles (anti-CD25 primary antibodies) with 20 μg/ml antibodies followed by semi-log dilution series (7-point) for 30 minutes on ice. This was followed by staining with a secondary antibody (rabbit anti-human Fcg F(ab′)2-(Jackson ImmunoResearch)) concentration of 5 μg/ml for 30 minutes on ice. All samples were stained in triplicates. To minimize cross-linking induced cell death mediated by binding of the secondary antibody, cell lines were examined in staining cohorts of 4 test articles at a time. Live lymphocytes were gated using FSC vs SSC parameters by flow cytometry during sample acquisition. Mean fluorescence intensity (MFI) of gated CD4⁺ and CD8⁺ T cell subsets were plotted on an XY chart, graphing MFI against the log of the concentration, and the data fit to a non-linear regression curve from which the EC50 was calculated.

[7] = target: T2, human CD25 expressed on cells; test: flow cytometry on CD3/CD28 bead activated human Pan T cells, gated on CD8+ T cells
Description: as §1

[8] = target: T1, recombinant human CD25 his tagged; test: SPR, Biacore 2000, IgG captured by anti-human antibody on CM5, rhCD25-His as analyte, two state reaction fit
Description: Anti-human antibody was initially immobilised across all flow cells in analysis buffer (pH 7.4, 10 mM HEPES, 150 mM NaCl, 3 mM EDTA, 0.05% Tween 20) to an RU of between 12,000-14,000 over 10 minutes. […] Dissociation was performed in analysis buffer over 10 minutes. Regeneration steps between sample concentrations were performed in 10 mM Glycin pH1.7 for 10 minutes. A flow rate of 25 μl/min was maintained throughout the process. Kinetics data were fit using a global two state reaction conformational change analysis software provided by Biacore with reference subtraction.

[9] = target: T3, human CD25 antigen, R&D Systems cat no. 223-2A/CF (~10% dimer) (human, UniProt P01589 22-213, limits assumed); test: SPR, Biacore T200, antibody captured by anti-human Fab on CM5, CD25 as analyte, Two State Reaction fit; column printed as 'Binding strength'
T3 construct: Bought protein; also called R&D Systems (~10% dimer)
T3 sequence: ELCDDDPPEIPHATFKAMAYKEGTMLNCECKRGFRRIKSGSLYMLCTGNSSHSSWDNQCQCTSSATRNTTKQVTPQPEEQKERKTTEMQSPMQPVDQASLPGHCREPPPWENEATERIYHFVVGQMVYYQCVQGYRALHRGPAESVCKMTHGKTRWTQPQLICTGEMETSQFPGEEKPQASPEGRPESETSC
Excerpt: (§2) Binding of CD25 antibodies to human CD25 antigen was investigated by surface plasmon resonance using a BIACORE T200 instrument (GE Healthcare).
(§3) For calculation of KD and kinetic parameters Biacore provided fitting models were used to obtain optimal curve fitting results. The 1:1 Langmuir fit was used for P1AA5872 and the Two State Kinetic fitting for CD25 from Sino Biologicals and R&D Systems.

[10] = target: T4, inhouse produced monomeric human CD25 antigen (P1AA5872) (human, UniProt P01589 22-240, limits assumed); test: SPR, Biacore T200, antibody captured by anti-human Fab on CM5, monomeric CD25 as analyte, 1:1 Langmuir fit; column printed as 'Binding strength'
T4 construct: also called Inhouse (0% dimer)
T4 sequence: T1 sequence
Excerpt: as §2, §3

[11] = target: T5, human CD25 antigen, Sino Biologicals cat no. 10165-H08H (~20% dimer) (human, UniProt P01589 22-213); test: SPR, Biacore T200, antibody captured by anti-human Fab on CM5, CD25 as analyte, Two State Reaction fit; column printed as 'Binding strength'; Sino Biological CD25 (~20% dimer), Two State Reaction fit
T5 construct: Bought protein; also called Sino biological (~20% dimer)
T5 sequence: T3 sequence
Excerpt: as §2, §3

[12] = target: T1, recombinant human CD25 his tagged; test: SPR, Biacore 2000: IgG1 captured on the chip, rhCD25-his tag as analyte; remark: listed apart in the source

B1: aCD25-a-646-m2 (antibody, IgG1, V domains shown)
VH: QVQLVESGGGLVQPGGSLRLSCAASGFTFPSYGMHWVRQAPGKGLEWVAVIWYDAINKYYADSVKGRFTISRDNSKNTLYLQMNSLRAEDTAVYYCARDLGYGDYAAHDYWGQGTLVTVSS
VL: DIQMTQSPSTLSASVGDRVTITCRASQSISSWLAWYQQKPGKAPKLLIYKASSLESGVPSRFSGSGSGTEFTLTISSLQPDDFATYYCQQHNTHPYTFGGGTKVEIK
Kd [1]: 0.36 nM

B2: aCD25-a-646-m3 (antibody, IgG1, V domains shown)
VH: B1 VH with L11V, G16R, I56V
VL: B1 VL
Kd [2]: 0.42 nM

B3: aCD25-a-646-m1 (antibody, IgG1, V domains shown)
VH: B1 VH with Q1E, Q13K, P30A, I56S, N57T
VL: B1 VL
Kd [3]: 1.43 nM

B4: aCD25-a-646-m5 (antibody, IgG1, V domains shown)
VH: B1 VH with Q1E, V5L, I56L
VL: B1 VL
Kd [4]: 0.31 nM

B5: aCD25-a-646 (antibody, V domains shown)
VH: B1 VH with L11V, G16R, P30S, A55G, I56S, Y59G
VL: B1 VL
notes: also called parental clone
Kd [5]: 3.65 nM | EC50 (read off the curve) [6]: ~0.2 µg/mL | EC50 (read off the curve) [7]: ~0.2 µg/mL | Kd [8]: 3.8 nM | Kd [9]: 15 nM | Kd [10]: 77 nM | Kd [11]: 8.5 nM

B6: aCD25-a-646-m4 (antibody, IgG1, V domains shown)
VH: B1 VH with L11V, G16R, I56S, N57T
VL: B1 VL
Kd [12]: 0.56 nM

— patent publication US20190300613A1 (TUSK THERAPEUTICS, published 2019)
